In publication PMC10743139, “Discovery and Engineering of a Novel Bacterial L-Aspartate α-Decarboxylase for Efficient Bioconversion” (Foods, 2023) one finds Km, kcat and kcat/Km data, which are given here for eleven molecules.

The labels stand for the following.
B1: CorGlu, ADC from Corynebacterium glutamicum (Corynebacterium glutamicum ATCC 13032) (protein)
chain 1: MLRTILGSKIHRATVTQADLDYVG
chain 2: SVTIDADLVHAAGLIEGEKVAIVDITNGARLETYVIVGDAGTGNICINGAAAHLINPGDLVIIMSYLQATDAEAKAYEPKIVHVDADNRIVALGNDLAEALPGSGLLTSRSI
B2: LisMon, ADC from Listeria Monocytogenes (Listeria monocytogenes EGD-e) (protein)
chain 1: MFRTMMNGKIHRATVTEANLNYVG
chain 2: SITIDSAILEAVDMLPNEKVQIVNNNNGARIETYIIPGEPGSGVICLNGAAARHVQVGDVVIIMSYGMFTDEEAKTHEPKIVVLDEKNHIEMILPEEKAHTTL
B3: BacThe, ADC from Bacteroides thetaiotaomicron (Bacteroides thetaiotaomicron VPI-5482) (protein)
chain 1: MMIEVLKSKIHCARVTEANLNYMG
chain 2: SITIDEDLLDAANMIPGEKVYIADNNNGERFETYIIKGERGSGKICLNGAAARKVQPDDIVIIMSYALMDFEEAKSFKPTVIFPDPATNSVVK
B4: BsADC (BacSub), ADC from B. subtilis (Bacillus subtilis subsp. subtilis str. 168) (protein)
chain 1: MYRTMMSGKLHRATVTEANLNYVG
chain 2: SITIDEDLIDAVGMLPNEKVQIVNNNNGARLETYIIPGKRGSGVICLNGAAARLVQEGDKVIIISYKMMSDQEAASHEPKVAVLNDQNKIEQMLGNEPARTIL
B5: CjADC (CorJei), L-aspartate α-decarboxylase from Corynebacterium jeikeium (Corynebacterium jeikeium K411) (protein)
chain 1: MLRTMLKSKIHRATVTQADLHYVG
chain 2: SCTIDADLMEAADILEGEQIDIVDIDNGNRLTTYAITGDRGTGVIGINGAAARLISPGDLVIIIGYAQYSEEDLKNYASRVVFVDGNNKQVELGGDPAQVPDGSGLKNPRHPEA

Substrate in one series: N[C@@H](CC(=O)O)C(=O)O
The series can be described thus: purified protein. The conditions noted are these: sodium L-aspartate 1-100 mM, pH 7.0, 37 °C, 5 min.
With B1, the Michaelis constant (Km) worked out at 4.5 ± 0.1 mM.

Consider B2, for which the Km came to 6.0 ± 0.2 mM.

With B3, the Michaelis constant (Km) worked out at 8.9 ± 0.4 mM.

For the molecule B4, the Michaelis-Menten constant (Km) is on record as 4.2 ± 0.3 mM.

On to B5, for which the Michaelis-Menten constant (Km) is 3.6 ± 0.2 mM.

A further series relates to N[C@@H](CC(=O)O)C(=O)O. Briefly: HPLC of beta-alanine, Michaelis-Menten fit. Type of series: biochemical, Corynebacterium jeikeium. The conditions noted are these: sodium L-aspartate 1-100 mM, pH 7.0, 37 °C, 5 min. An excerpt:
HPLC of beta-alanine, Michaelis-Menten fit on CjADC (CorJei), L-aspartate α-decarboxylase from Corynebacterium jeikeium
“CjADC (CorJei), L-aspartate α-decarboxylase from Corynebacterium jeikeium (Corynebacterium jeikeium K411; I88M/Y90F)”: the Michaelis-Menten constant (Km) is reported as 3.2 ± 0.4 mM.

On to “CjADC (CorJei), L-aspartate α-decarboxylase from Corynebacterium jeikeium (Corynebacterium jeikeium K411; C26V/I88M)”, for which the Km worked out at 3.6 ± 0.2 mM.

Regarding “CjADC (CorJei), L-aspartate α-decarboxylase from Corynebacterium jeikeium (Corynebacterium jeikeium K411; C26V/I88M/R3K/Y90F)”, the Km stood at 2.2 ± 0.5 mM, the kcat came to 209.2 ± 0.8 s⁻¹ and the kcat/Km came to 95100 ± 1600 M⁻¹ s⁻¹.

For “CjADC (CorJei), L-aspartate α-decarboxylase from Corynebacterium jeikeium (Corynebacterium jeikeium K411; C26V/Y90F)”, the Km came out at 4.1 ± 0.3 mM.

Consider “CjADC (CorJei), L-aspartate α-decarboxylase from Corynebacterium jeikeium (Corynebacterium jeikeium K411; C26V/I88M/Y90F)”, for which the Michaelis constant (Km) came to 2.6 ± 0.6 mM, the kcat came out at 171.5 ± 0.8 s⁻¹ and the specificity constant (kcat/Km) worked out at 61200 ± 1300 M⁻¹ s⁻¹.

Turning to “CjADC (CorJei), L-aspartate α-decarboxylase from Corynebacterium jeikeium (Corynebacterium jeikeium K411; I88L/Y90F)”, the Michaelis constant (Km) came to 3.9 ± 0.1 mM, the kcat is 88.6 ± 2.8 s⁻¹ and the catalytic efficiency (kcat/Km) came to 22700 ± 500 M⁻¹ s⁻¹.

By Km is commonly meant the substrate concentration at which the rate is half of its maximum. A word on the kcat: it is the number of substrate molecules converted per active site and unit of time at saturation. Usually kcat/Km stands for the second-order rate constant that governs catalysis at low substrate concentration.
